Data from the RNAGym collection of RNA variant scans (doi:10.7554/elife.80360).

B1: Hairpin Ribozyme (parent)
chain: GUCCUCUUUCACGUGCGCGUGAAAGAGAGAAGUGAACCAGAGAAACACACGUUGUGGUAUAUUACCUGGUA

Variants of: B1
Assay: self-cleavage, relative activity (ratio to wild type); higher = more cleavage; co-transcriptional

Question: For GUCCUCUUUCACGUGCGCGUCAAAGAGAGAAGUGAACCAGGGAAACACACGUUGUGGUAUAUUACCUGGUA [G21C A41G], which self-cleavage is on record?
Answer: 0.606

Question: With GUCCUCUUUCACGUGCGCGUGAAAGAGAGAAGUGAACCAGAGAAACACUCGUUGUGGUAUAUUAACUGGUA [A49U C65A] as the variant, how does the self-cleavage read?
Answer: 0.188

Question: With UUCCUCUUUCACGUGCGCGUGAAAGAGAGAAGUGAACCAGAGAAACACACGUUGUGGUAUAUUACCAGGUA [G1U U67A] as the variant, how does the self-cleavage read?
Answer: 0.105

Question: For GUCCUCUUUCACGUGCGCGUGUAAGAGAGAAGUGAACCAGAGAAACACACAUUGUGGUAUAUUACCUGGUA [A22U G51A], which self-cleavage is on record?
Answer: 0.811

Question: For GUCCUCUUUCACGUGCGCGUGAAAGAGAGAAGUGAAACAGAGUAACACACGUUGUGGUAUAUUACCUGGUA [C37A A43U], which self-cleavage is on record?
Answer: 0.15

Question: With GUCCUCUUUCACGUGCGGGUGAAAGAGAGAAGUGAACCAGAGAAACACAUGUUGUGGUAUAUUACCUGGUA [C18G C50U] as the variant, how does the self-cleavage read?
Answer: 0.24

Question: For GUCCUCUCUCCCGUGCGCGUGAAAGAGAGAAGUGAACCAGAGAAACACACGUUGUGGUAUAUUACCUGGUA [U8C A11C], which self-cleavage is on record?
Answer: 0.289

Question: For GUCCUCUUUCACGUGCGCAUGAAAGAGAGACGUGAACCAGAGAAACACACGUUGUGGUAUAUUACCUGGUA [G19A A31C], which self-cleavage is on record?
Answer: 0.136

Question: With GUCUUCUUUCACGUGCGCGUGAAAGAGAGAAGUGAACCAGAGAAACACACGUCGUGGUAUAUUACCUGGUA [C4U U53C] as the variant, how does the self-cleavage read?
Answer: 0.398

Question: Which self-cleavage does the source give for GUCCUCUUUCACGUGCGCGUGAAAGAGAGAAGUGAACCAGAGAACCACACGUUGUGGUAUAAUACCUGGUA [A45C U62A] here?
Answer: 0.332

Question: For GUCCUCUUUCACGUGCGCGUGAAAGAGAGAAGUGAACCAGAGAAACACACGUUGUCGUAUAUUACCUGAUA [G56C G69A], which self-cleavage is on record?
Answer: 0.135

Question: For GUCCUCUUUCACGUGCGCGUGAAAGAGAGGAGUGAACCAGAGAAACACACGUUGUGGUAUAUUACCUGGUG [A30G A71G], which self-cleavage is on record?
Answer: 0.109

Question: With GUCCUCUUUCACGUGCGCGUGAAAGAGAGAAGUGAACCAGAGAAACACACGUUGUGGUAUGUUACCCGGUA [A61G U67C] as the variant, how does the self-cleavage read?
Answer: 0.113

Question: Which self-cleavage does the source give for GUGCUCUUUCACGUGCGCGUGAAAGAGAGAAGUGAAGCAGAGAAACACACGUUGUGGUAUAUUACCUGGUA [C3G C37G] here?
Answer: 0.0959

Question: With GUCCUCUUUCACGUGCGCGUGAAAGAGAUAAGUGAACCAGAGUAACACACGUUGUGGUAUAUUACCUGGUA [G29U A43U] as the variant, how does the self-cleavage read?
Answer: 0.215

Question: With GUCCUCUUUCACGUGCGCGUGAAAGAGAGAAGUGAACCAGAGACACACACGUUGUGGUAAAUUACCUGGUA [A44C U60A] as the variant, how does the self-cleavage read?
Answer: 0.172

Question: For GUCCUCUUUCACGUGCGCGUGAAACAGAGAAGUGAACCAGAGAAACACACGUUGUGGCAUAUUACCUGGUA [G25C U58C], which self-cleavage is on record?
Answer: 0.559

Question: Which self-cleavage does the source give for GUCCUCUAUCACGUGGGCGUGAAAGAGAGAAGUGAACCAGAGAAACACACGUUGUGGUAUAUUACCUGGUA [U8A C16G] here?
Answer: 0.632

Question: Which self-cleavage does the source give for GUCCUCUUUCACGUUCGCGUGAAAGAGAGAAGUGAACCAGAGAAACACACGUUGUGGUCUAUUACCUGGUA [G15U A59C] here?
Answer: 0.11

Question: For GUCCUCUUUCACGUGCGCGUGAAUGAGAGAAGUGAGCCAGAGAAACACACGUUGUGGUAUAUUACCUGGUA [A24U A36G], which self-cleavage is on record?
Answer: 0.943

Question: Which self-cleavage does the source give for GUCCUCUUUCACGUGCGCUUGAAAGAGAGAAGUGAACCAGAGAAACACACGUUGUGGUAUCUUACCUGGUA [G19U A61C] here?
Answer: 0.236

Question: For GUCCUCUUUCACGUGCGCGUGAAAGAGAGAAGUGUACCAGAGAAACACACAUUGUGGUAUAUUACCUGGUA [A35U G51A], which self-cleavage is on record?
Answer: 0.965

Question: Which self-cleavage does the source give for GUCCUCUUUCACGUGCGCGUGAAAAAGAGAAGUGAACCAGAGAAACACACGUUGUGGUAUCUUACCUGGUA [G25A A61C] here?
Answer: 0.196

Question: Which self-cleavage does the source give for GUCCUCUUUCACGUGCGCGUGAUAGAGAGAAGUGAACCAGAGAAACACACGUUGUGGUGUAUUACCUGGUA [A23U A59G] here?
Answer: 0.183

Question: Which self-cleavage does the source give for GUCCUCUUUCACGUGCGCGUGAAAGAGAGAAGUGAACCAGGGAAACAAACGUUGUGGUAUAUUACCUGGUA [A41G C48A] here?
Answer: 0.0982

Question: With GUCCUCUUUCACGUGCGCGUGAAGGAGAGAAGUGAACCAGAGAAACACACGUAGUGGUAUAUUACCUGGUA [A24G U53A] as the variant, how does the self-cleavage read?
Answer: 0.822

Question: For GUCCUCUUUCACGUGCGCGUGAAAGAGAGAAGUGAAACAGAGAAAAACACGUUGUGGUAUAUUACCUGGUA [C37A C46A], which self-cleavage is on record?
Answer: 0.179

Question: With GUCCUCUUUCACGUGCCCGUGAAAGAGAGAAGUGAACCAGAGAAACACACGUUGUGGUAUAUUACCUGCUA [G17C G69C] as the variant, how does the self-cleavage read?
Answer: 0.124

Question: Which self-cleavage does the source give for GUCCUCUUUCACGUGCGCCUGAAAGAGAGAAGUGAACCAGAGGAACACACGUUGUGGUAUAUUACCUGGUA [G19C A43G] here?
Answer: 0.219

Question: Which self-cleavage does the source give for GUGCGCUUUCACGUGCGCGUGAAAGAGAGAAGUGAACCAGAGAAACACACGUUGUGGUAUAUUACCUGGUA [C3G U5G] here?
Answer: 0.163

Question: For GUCCUCUUUCACGUUCGCGUGAAAGAGAGAAGUGAACCAGAGAAACACACGUUGUCGUAUAUUACCUGGUA [G15U G56C], which self-cleavage is on record?
Answer: 0.195

Question: Which self-cleavage does the source give for GUCCUCUUUCACGUGCGCGUGAAAGACAGAAGUGAACCAGAGAAACACACGUUGUGGUAAAUUACCUGGUA [G27C U60A] here?
Answer: 0.177

Question: Which self-cleavage does the source give for GUCCACUUUCACGUGCGCGUGAAAGAGAGAAGUGAACCAGAGAAACACACGUUGUGAUAUAUUACCUGGUA [U5A G57A] here?
Answer: 0.154

Question: Which self-cleavage does the source give for GUCCUCUUUCACGUGCGCGUGAAAGAGAGAUGUGAACCAGAGAAACACACGUUGUGGUAUAUUACCUGGUA [A31U] here?
Answer: 0.129

Question: For GUCCGGUUUCACGUGCGCGUGAAAGAGAGAAGUGAACCAGAGAAACACACGUUGUGGUAUAUUACCUGGUA [U5G C6G], which self-cleavage is on record?
Answer: 0.224

Question: For GUCCUCUUUCACGUGCCCGUGAAAGAGAGAAGUGAACCAGAGAAACACACGUUGUGGUAUAUUCCCUGGUA [G17C A64C], which self-cleavage is on record?
Answer: 0.186

Question: For GUCCUCUUUCACGUGCGCGUGAAAGAGAGAAGUGAACCAGAGCAACACACGUUGAGGUAUAUUACCUGGUA [A43C U55A], which self-cleavage is on record?
Answer: 0.174

Question: For GUCCUCUUUCACGGGCGCGUAAAAGAGAGAAGUGAACCAGAGAAACACACGUUGUGGUAUAUUACCUGGUA [U14G G21A], which self-cleavage is on record?
Answer: 0.686
